Experimental data: patent US20080064629A1, “Amphiregulin as a Protective Agent in Acute Hepatic Injury” (priority 2004, published 2008)

Tests used:
[1] = test system: male C57/BL6 mice; assay: Acute liver damage induced by Jo2 antibody (Fas activation) in mice, treatment with AR; assay type: in vivo, mouse
Experimental: The experiments were carried out in compliance with the guidelines of the University of Navarra relating to the use of laboratory animals. Cirrhosis was induced with CCl4 in male Wistar rats as described elsewhere [(16) Castilla-Cortazar, I., Garcia, M., Muguerza, B., Quiroga, J., Perez, R., Santidrian, S., Prieto, J. 1997. Hepatoprotective effects of insulin-like growth factor I in rats with carbon tetrachloride-induced cirrhosis. Gastroenterology 113:1682-1691). Two-thirds PH or sham operations were performed on male Wistar rats (150 g) and male C57/BL6 mice (20 g) according to the method of Higgins and Andersen [(17) Higgins, G. M., Andersen, R. M. 1931. Experimental pathology of liver: restoration of liver of the white rat following partial surgical removal. Arch. Pathol. 12:186-202. (18) Latasa, M. U., Boukaba, A., García-Trevijano, E. R., Torres, L., Rodríguez, J. L., Caballería, J., Lu, S. C., López-Rodas, G., Franco, L., Mato, J. M., et al. 2001. Hepatocyte growth factor induces MAT2A expression and histone acetylation in rat hepatocytes. Role in liver regeneration. FASEB J. 10.1096/fj.00-0556fje. (19) Chen, L., Zeng, Y., Yang, H., Lee, T. D., French, S. W., Corrales, F. J., García-Trevijano, E. R., Avila, M. A., Mato, J. M., and Lu, S. C. 2004. Impaired liver regeneration in mice lacking methionine adenosyltransferase 1A. FASEB J. 18: 914-916]. Following sedation, in the sham operated animals the liver was exposed and then returned to the abdominal cavity. Acute liver damage was induced in male C57/BL6 mice (20 g) (n=3-5 per condition and time point) by means of a single intraperitoneal injection of CCl4 (1 μl/g body weight in olive oil) (Sigma, St. Louis, Mo., USA) or Jo2 monoclonal antibody (4 μg/mouse in saline solution) (BD PharMingen, San Diego, Calif., USA) [(5),(20) Martínez-Chantar, M. L., Corrales, F. J., Martínez-Cruz, A., García-Trevijano, E. R., Huang, Z. Z., Chen, L. X., Kanel, G., Avila, M. A., Mato, J. M., Lu, S. C. 2002. Spontaneous oxidative stress and liver tumors in mice lacking methionine adenosyltransferase 1A. FASEB J. 10.1096/fj.02-0078fje]. The controls received an equivalent volume of olive oil or saline solution. In the cases indicated, the mice received an intraperitoneal injection of human recombinant AR (9.5 μg/mouse) (Sigma) 6 and 0.5 h before and 3 h after Jo2 antibody, or 0.5 h before and 12 h after CCl4. At the indicated timepoints, mice were subjected to blood sampling and the sera were analysed for alanine and aspartate aminotransferase (ALT and AST) as described elsewhere [(16) and (21) Lasarte, J. J., Sarobe, P., Boya, P., Casares, N., Arribillaga, L., López-Díaz of Cerio, A., Gorraiz, M., Borrás-Cuesta, F., Prieto, J. 2003. A recombinant adenovirus encoding hepatitis C virus core and E1 proteins protects mice against cytokine-induced liver damage. Hepatology 37: 461-470]. Mice were sacrificed by cervical dislocation, and the livers were quickly frozen in liquid nitrogen, or fixed in formalin and embedded in paraffin for staining with hematoxylin and eosin (H&E).
Caspase-3 activity in mouse hepatocytes and liver tissue lysates was assessed using the Caspase-3/CPP32 colorimetric assay kit (BioVision, Palo Alto, Calif., USA). Cells in culture (5×10^5 per condition) were lysed directly in the lysis buffer supplied with the kit after the corresponding treatments. Liver tissue was homogenized using a Dounce homogenizer in lysis buffer, followed by centrifugation at 15,000 rpm during 10 min. […]

[2] = test system: rat hepatocytes; assay: DNA synthesis ([3H]thymidine incorporation) in cultured rat hepatocytes; assay type: cell-based; details: increasing concentrations of AR, 30 h of treatment
Experimental: For DNA synthesis, rat hepatocytes were plated to a density of 3×10^4 cells/well in 96-well plates coated with collagen in MEM medium supplemented with 10% FCS. Five hours after plating, the medium was changed and cells were maintained in absence of serum for another 20 hours. DNA synthesis was assayed after 30 h of treatment with AR. A pulse of [^3H]thymidine was administered (1 μCi/well)(Amersham Biosciences, Piscataway, N.J., USA) 22 h after the addition of AR. Cells were harvested, and the incorporation of thymidine was determined with a scintillation counter. Evaluations were made of the effect of AR on DNA synthesis in the presence of MEK1 inhibitor, PD98059, PI-3K inhibitor, LY294002, p38 MAPK inhibitor, SB202190, JNK inhibitor, SP600125, and of the EGF-R tyrosine kinase activity inhibitor, PD153035—all supplied by Calbiochem.

B1: amphiregulin (protein)
chain: SVRVEQVVKPPQNKTESENTSDKPKRKKKGGKNGKNRRNRKKKNPCNAEFQNFCIHGECKYIEHLEAVTCKCQQEYFGERCGEKSMKTHSMIDSSLSK
notes: polypeptide growth factor belonging to the EGF family, ligand of EGF receptor; human recombinant AR (Sigma) used
B1 was tested, and the “serum transaminase (AST and ALT) elevation” value ([1]; 12 h after Jo2 (4 μg/mouse i.p.), AR 9.5 μg/mouse i.p. 6 and 0.5 h before and 3 h after Jo2) was “strongly suppressed”, the “liver damage by histopathological analysis” value ([1]; 12 h after Jo2, AR 9.5 μg/mouse i.p. 6 and 0.5 h before and 3 h after Jo2) was “almost completely avoided liver damage” and the “induction of caspase-3 activity in mouse liver extracts” value ([1]; 12 h after Jo2 injection, AR 9.5 μg/mouse i.p.) was “strongly inhibited”. The “levels of Bcl-xL protein in liver (Western blot)” value ([1]; AR and Jo2 versus Jo2 alone, 6 h after injection of Jo2, 12 h (figure legend)) was “greater”, the “rupture of caspase-3 (p17 subunit of active caspase-3, Western blot) in liver” value ([1]; liver extracts after Jo2 injection, AR 9.5 μg/mouse i.p.) was “avoided” and the “DNA synthesis, incorporation of [3H]thymidine to DNA” value [2] was “stimulating the incorporation of [^3H]thymidine to DNA in a dose-dependent manner”.
